Experimental findings from the supplement of paper PMC7877785 are described below.

± gives the uncertainty stated by the source.

A short description of this series: self-splicing fitness, log relative to wild type (ln ratio); higher = more splicing; Tetrahymena group I intron in knt gene, E. coli kanamycin selection, DiMSum; sequences stand for … in CUCUCU…GGAGGGAAAAGUUAUCAGGCAUGCACCUGGUAGCUAGUCUUUAAACCAAUAGAUUGCAUCGGUUUAAAAGGCAAGACCGUCAAAUUGCGGGAAAGGGGUCAACAGCCGUUCAGUACCAAGUCUCAGGGGAAACUUUGAGAUGGCCUUGCAAAGGGUAUGGUAAUAAGCUGACGGACAUGGUCCUAACCACGCAGCCAAGUCCUAAGUCAACAGAUCUUCUGUUGAUAUGGAUGCAGUUCACAGACUAAAUGUCGGUCGGGGAAGAUGUAUUCUUCUCAUAAGAUAUAGUCGGACCUCUCCUUAAUGGGAGCUAGCGGAUGAAGUGAUGCAACACUGGAGCCGCUGGGAACUAAUUUGUAUGCGAAAGUAUAUUGAUUAGUUUUGGAGUACUCGUGGUCG
In short, it runs like this: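 Pooled colonies went to amplicon sequencing on an Illumina HiSeq 2500 after six replicate transformations. The plates were LB agar with 100 μg/mL carbenicillin, 50 μM IPTG and 0.2% rhamnose, with or without 25 μg/mL kanamycin, incubated overnight at 37°C or 30°C. The E. coli BL21(DE3) library had all eight P1ex-region intron nucleotides randomised, the intron placed in the knt kanamycin-resistance gene on pET-22b(+). DiMSum fitness is the error-weighted combination of replicate fold changes, kanamycin against none, normalised to wild type.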

On to UAAGAGCAAUAUUACGACAU, for which the “self-splicing fitness (ln)” value runs as follows: (30 °C) -3.866 ± 0.031; (37 °C) -2.82 ± 0.043. Turning to UAACAGCAAUAUUACGCUGU, the “self-splicing fitness (ln)” value runs as follows: (30 °C) -3.79 ± 0.16; (37 °C) -2.62 ± 0.19.

Take CAGUAGCAAUAUUACGUUUG: the “self-splicing fitness (ln)” value is, setting by setting: (30 °C) -1.35 ± 0.08; (37 °C) -0.625 ± 0.11. Consider GCAUAGCAAUAUUACGAGCA, for which the “self-splicing fitness (ln)” value (30 °C) is -1.39 ± 0.23 and the “self-splicing fitness (ln)” value (37 °C) was -0.718 ± 0.2. As for UGCCAGCAAUAUUACGGGCC, the “self-splicing fitness (ln)” value is -3.23 ± 0.21 (30 °C) and -1.73 ± 0.2 (37 °C). As for ACCCAGCAAUAUUACGCGAA, the “self-splicing fitness (ln)” value (30 °C) was -1.26 ± 0.068 and the “self-splicing fitness (ln)” value (37 °C) is -0.703 ± 0.078. The corresponding values for ACUGAGCAAUAUUACGCAGU are -2.36 ± 0.24 and -1.35 ± 0.2. In the same order, the values of GAUUAGCAAUAUUACGGUGG are -2.89 ± 0.2 and -2.88 ± 0.2. In the case of CAGAAGCAAUAUUACGCUCU, the “self-splicing fitness (ln)” value is -4.2 ± 0.24 (30 °C) and -2.41 ± 0.17 (37 °C). UCUCAGCAAUAUUACGGCCA: the “self-splicing fitness (ln)” value was -2.65 ± 0.19 (30 °C) and -1.69 ± 0.21 (37 °C). For CAGUAGCAAUAUUACGCAUC, under “37 °C”, the “self-splicing fitness (ln)” value was -1.82 ± 0.26. Turning to UCGUAGCAAUAUUACGUACG, the “self-splicing fitness (ln)” value reads like this: (30 °C) -3.07 ± 0.24; (37 °C) -1.96 ± 0.19. The corresponding values for UUGAAGCAAUAUUACGCCAA are -0.371 ± 0.094 and -0.324 ± 0.11.

As for AAUCAGCAAUAUUACGGGGU, the “self-splicing fitness (ln)” value is -3.02 ± 0.17 (30 °C) and -1.39 ± 0.12 (37 °C). In the case of CAUAAGCAAUAUUACGUCAA, the “self-splicing fitness (ln)” value by setting is: (30 °C) -3.33 ± 0.27; (37 °C) -2.61 ± 0.3. In the case of CUAUAGCAAUAUUACGUAUA, the “self-splicing fitness (ln)” value is -3.27 ± 0.42 (30 °C) and -2.56 ± 0.37 (37 °C). In the case of CCCGAGCAAUAUUACGCCUA, the “self-splicing fitness (ln)” value (30 °C) was -1.85 ± 0.25 and the “self-splicing fitness (ln)” value (37 °C) is -2.94 ± 0.35. Turning to CGACAGCAAUAUUACGCAUU, the “self-splicing fitness (ln)” value (30 °C) was -2.93 ± 0.15 and the “self-splicing fitness (ln)” value (37 °C) was -2.03 ± 0.16. AUGAAGCAAUAUUACGGGGG: the “self-splicing fitness (ln)” value is -3.12 ± 0.24 (30 °C) and -2.49 ± 0.28 (37 °C). With UGCGAGCAAUAUUACGACAU, the “self-splicing fitness (ln)” value is, setting by setting: (30 °C) -3.628 ± 0.028; (37 °C) -2.26 ± 0.039. CGUAAGCAAUAUUACGAAAA: the “self-splicing fitness (ln)” value (30 °C) was -3.49 ± 0.31 and the “self-splicing fitness (ln)” value (37 °C) is -1.49 ± 0.16.

Regarding CUUUAGCAAUAUUACGACUA, for the setting “37 °C”, the “self-splicing fitness (ln)” value is -1.32 ± 0.42. CGUCAGCAAUAUUACGAAUC: the “self-splicing fitness (ln)” value (30 °C) was -3.1 ± 0.27 and the “self-splicing fitness (ln)” value (37 °C) is -0.891 ± 0.33.

On to GUUCAGCAAUAUUACGUGGU, for which the “self-splicing fitness (ln)” value runs as follows: (30 °C) -1.03 ± 0.057; (37 °C) -0.621 ± 0.079. The corresponding values for UGGUAGCAAUAUUACGUCCA are -0.714 ± 0.24 and -0.608 ± 0.3.

Regarding UGUCAGCAAUAUUACGACCC, the “self-splicing fitness (ln)” value by setting is: (30 °C) -0.106 ± 0.22; (37 °C) 0.358 ± 0.26. As for GGUCAGCAAUAUUACGAUUU, the “self-splicing fitness (ln)” value was found to be 0.377 ± 0.062 (30 °C) and 0.21 ± 0.088 (37 °C). Take GGAGAGCAAUAUUACGCGAG: the “self-splicing fitness (ln)” value (30 °C) was -2.31 ± 0.48.

Regarding CCCCAGCAAUAUUACGGUUG, the “self-splicing fitness (ln)” value by setting is: (30 °C) -2.4 ± 0.087; (37 °C) -1.5 ± 0.1. In the same order, the values of UCAUAGCAAUAUUACGAGUA are -3.06 ± 0.23 and 0.0724 ± 0.12. With GGGGAGCAAUAUUACGUACA, the “self-splicing fitness (ln)” value reads like this: (30 °C) -1.75 ± 0.2; (37 °C) -1.76 ± 0.49.

For CUAUAGCAAUAUUACGCCAC, the “self-splicing fitness (ln)” value (37 °C) is -1.21 ± 0.42. Consider UGAAAGCAAUAUUACGAUGG, for which the “self-splicing fitness (ln)” value by setting is: (30 °C) -1.59 ± 0.086; (37 °C) -0.618 ± 0.11.

In the case of UAAAAGCAAUAUUACGGAAA, the “self-splicing fitness (ln)” value runs as follows: (30 °C) -2.5 ± 0.23; (37 °C) -1.72 ± 0.15. As for ACCAAGCAAUAUUACGAGCA, the “self-splicing fitness (ln)” value is -2.53 ± 0.12 (30 °C) and -0.958 ± 0.099 (37 °C).

As for AUCGAGCAAUAUUACGCACC, for the setting “30 °C”, the “self-splicing fitness (ln)” value was -1.65 ± 0.18. As for UGCAAGCAAUAUUACGAAAA, the “self-splicing fitness (ln)” value (30 °C) was -2.32 ± 0.28 and the “self-splicing fitness (ln)” value (37 °C) is -1.64 ± 0.17. Take GACUAGCAAUAUUACGGACU: the “self-splicing fitness (ln)” value is -0.117 ± 0.11 (30 °C) and -0.611 ± 0.14 (37 °C). The corresponding values for UCACAGCAAUAUUACGACGC are -2.07 ± 0.15 and -1.03 ± 0.2. In the same order, the values of AGCUAGCAAUAUUACGUAUU are -3.8 ± 0.23 and -1.35 ± 0.15. Consider CUCCAGCAAUAUUACGCCCU, for which the “self-splicing fitness (ln)” value is -3.46 ± 0.34 (30 °C) and -2 ± 0.26 (37 °C).

For the sequence CAGCAGCAAUAUUACGGUUA, the “self-splicing fitness (ln)” value by setting is: (30 °C) -0.417 ± 0.06; (37 °C) -0.163 ± 0.059.

As to CAGGAGCAAUAUUACGUUUG, the “self-splicing fitness (ln)” value is -3.14 ± 0.14 (30 °C) and -1.43 ± 0.14 (37 °C).

AGGAAGCAAUAUUACGGCAU: the “self-splicing fitness (ln)” value by setting is: (30 °C) -1.28 ± 0.13; (37 °C) -0.506 ± 0.15. The corresponding values for GCAUAGCAAUAUUACGAUAG are -3.12 ± 0.17 and -2.34 ± 0.2. In the same order, the values of AUCGAGCAAUAUUACGAUUU are -1.42 ± 0.11 and -0.535 ± 0.13.

As for GCGUAGCAAUAUUACGGUGG, the “self-splicing fitness (ln)” value is -4.1 ± 0.31 (30 °C) and -3.39 ± 0.39 (37 °C). The corresponding values for CAGUAGCAAUAUUACGCGCG are -0.327 ± 0.16 and 0.324 ± 0.18. In the same order, the values of UAGCAGCAAUAUUACGGCUG are -3.72 ± 0.35 and -2.64 ± 0.28. Consider GGAAAGCAAUAUUACGACAA, for which the “self-splicing fitness (ln)” value is -1.71 ± 0.12 (30 °C) and -1 ± 0.14 (37 °C). In the same order, the values of GUAGAGCAAUAUUACGUUCC are -1.77 ± 0.14 and -0.881 ± 0.18. In the same order, the values of UACUAGCAAUAUUACGUGUU are -3.16 ± 0.15 and -0.975 ± 0.13.

On to UACUAGCAAUAUUACGGUGU, for which the “self-splicing fitness (ln)” value (30 °C) was -3.74 ± 0.23 and the “self-splicing fitness (ln)” value (37 °C) was -2.65 ± 0.29.

Regarding GUUCAGCAAUAUUACGUGCC, the “self-splicing fitness (ln)” value by setting is: (30 °C) -2.59 ± 0.2; (37 °C) -1.19 ± 0.19. With GCCUAGCAAUAUUACGCCGU, the “self-splicing fitness (ln)” value by setting is: (30 °C) -1.01 ± 0.15; (37 °C) -0.292 ± 0.13. In the same order, the values of GAAUAGCAAUAUUACGGCUA are -0.51 ± 0.15 and -0.595 ± 0.14. As for ACGGAGCAAUAUUACGUCAU, the “self-splicing fitness (ln)” value (30 °C) was -4.36 ± 0.37 and the “self-splicing fitness (ln)” value (37 °C) is -3.01 ± 0.37. The corresponding values for UAACAGCAAUAUUACGAAGC are -3.19 ± 0.19 and -2.3 ± 0.27. For GCUGAGCAAUAUUACGAAUU, the “self-splicing fitness (ln)” value (30 °C) was -2.46 ± 0.22 and the “self-splicing fitness (ln)” value (37 °C) is -1.36 ± 0.19.

With GGUGAGCAAUAUUACGCAGA, the “self-splicing fitness (ln)” value (30 °C) is -2.51 ± 0.31 and the “self-splicing fitness (ln)” value (37 °C) is -2.52 ± 0.33. Consider GCCAAGCAAUAUUACGGGUU, for which the “self-splicing fitness (ln)” value by setting is: (30 °C) -2.48 ± 0.09; (37 °C) -1.79 ± 0.1.

For AACUAGCAAUAUUACGGAUU, the “self-splicing fitness (ln)” value was -1.16 ± 0.088 (30 °C) and -0.792 ± 0.1 (37 °C).

Consider AUCGAGCAAUAUUACGGAGA, for which the “self-splicing fitness (ln)” value is, setting by setting: (30 °C) -2.8 ± 0.22; (37 °C) -2.7 ± 0.29. The corresponding values for ACUGAGCAAUAUUACGAAAU are -2.94 ± 0.24 and -1.72 ± 0.22. In the case of GUAAAGCAAUAUUACGGUAG, the “self-splicing fitness (ln)” value by setting is: (30 °C) -0.977 ± 0.054; (37 °C) -1.37 ± 0.099. The corresponding values for GGGGAGCAAUAUUACGAGCG are -2.37 ± 0.25 and -1.53 ± 0.22. For UCGUAGCAAUAUUACGAUCU, the “self-splicing fitness (ln)” value reads like this: (30 °C) -1.92 ± 0.3; (37 °C) -1.67 ± 0.37. The corresponding values for AUUUAGCAAUAUUACGAACA are -0.709 ± 0.15 and -0.537 ± 0.17. The corresponding values for GCCAAGCAAUAUUACGCUGC are -3.01 ± 0.27 and -2.04 ± 0.28. In the same order, the values of AUCAAGCAAUAUUACGUUCU are -0.858 ± 0.092 and -0.459 ± 0.12. As to GCGAAGCAAUAUUACGCGCC, where the note is “37 °C”, the “self-splicing fitness (ln)” value is -1.73 ± 0.4. In the case of UGACAGCAAUAUUACGUCAC, the “self-splicing fitness (ln)” value is -3.74 ± 0.17 (30 °C) and -3.16 ± 0.23 (37 °C). In the same order, the values of UGCCAGCAAUAUUACGUUGG are -3.91 ± 0.18 and -2.22 ± 0.15. As to CAGAAGCAAUAUUACGGAGA, the “self-splicing fitness (ln)” value (37 °C) is -2.16 ± 0.24. Consider ACCGAGCAAUAUUACGGGUU, for which the “self-splicing fitness (ln)” value was -2.85 ± 0.12 (30 °C) and -2.54 ± 0.18 (37 °C). In the same order, the values of GAUUAGCAAUAUUACGAUGU are -0.783 ± 0.074 and -0.611 ± 0.1. CAGGAGCAAUAUUACGCGGC: the “self-splicing fitness (ln)” value is -1.43 ± 0.36 (30 °C) and -1.14 ± 0.41 (37 °C).
